{"source": "the DeepSol protein solubility set", "data": [{"assay": "soluble on expression in E. coli; label from the status in PepcDB or PDB records", "values": [{"sequence": "MQEKQLKTIQNKIASWIKEIESAFIDELFSKIGPSKMLRSKLMLALLNEKTDAILLDKAFNLCAIVEMIQTASLLHDDVIDKAAMRRKLPSINALFGNFNAVMLGDVFYSKAFFELSKMGESIAKSLSNAVLRLSRGEIEDVFVGGSFNSDKQKYWRILEDKTAHFIEASLKSMAILLNKDAKMYADFGLNFGMAFQIIDDLLDITQDAKTLGKPNFSDFKEGKTTLPYLLLYEKLNQRDQGLLISYFKQDSHEIIEWTKEKFKQYGTIEETLKIAQVYSKKALEAIKGENNLILEKLAQDVIYRTF", "soluble on expression in E. coli": "not soluble"}, {"sequence": "GPGSMAAAEGGQRSDEQVRAAALSWLRMTPVEKRVYEEEAQSWQTRLETLSTAPPSAHDLGEGSSSAAALPDALPSAEQPLPQQQHSSHLVAQRSSPKATAERLPRSKSSFVLFRAHMKGRRKMCMRELCAVWRNMSAEEKAPYDAAAASKRTEQFLSQTPSAPGSQS", "soluble on expression in E. coli": "soluble"}, {"sequence": "MSETPAQCSIKQERISYTPPESPVPSYASSTPLHVPVPRALRMEEDSIRLPAHLRLQPIYWSRDDVAQWLKWAENEFSLRPIDSNTFEMNGKALLLLTKEDFRYRSPHSGDVLYELLQHILKQRKPRILFSPFFHPGNSIHTQPEVILHQNHEEDNCVQRTPRPSVDNVHHNPPTIELLHRSRSPITTNHRPSPDPEQRPLRSPLDNMIRRLSPAERAQGPRPHQENNHQESYPLSVSPMENNHCPASSESHPKPSSPRQESTRVIQLMPSPIMHPLILNPRHSVDFKQSRLSEDGLHREGKPINLSHREDLAYMNHIMVSVSPPEEHAMPIGRIADCRLLWDYVYQLLSDSRYENFIRWEDKESKIFRIVDPNGLARLWGNHKNRTNMTYEKMSRALRHYYKLNIIRKEPGQRLLFRFMKTPDEIMSGRTDRLEHLESQELDEQIYQEDEC", "soluble on expression in E. coli": "soluble"}, {"sequence": "GSSHHHHHHSSGLVPRGSQILCVGLVVLDVISLVDKYPKEDSEIRCLSQRWQRGGNASNSCTILSLLGAPCAFMGSMAPGHVADFVLDDLRRYSVDLRYTVFQTTGSVPIATVIINEASGSRTILYYDRSLPDVSATDFEKVDLTQFKWIHIEGRNASEQVKMLQRIDAHNTRQPPEQKIRVSVEVEKPREELFQLFGYGDVVFVSKDVAKHLGFQSAEEALRGLYGRVRKGAVLVCAWAEEGADALGPDGKLLHSDAFPPPRVVDTLGAGDTFNASVIFSLSQGRSVQEALRFGCQVAGKKCGLQGFDGIV", "soluble on expression in E. coli": "soluble"}, {"sequence": "MALVNEHFLKLPGSYLFSDIAKKVNTFKITHPKQDIIRLGIGDVTQPLPKACIEAMHKAVEELASKDTFRGYGPEQGYDFLIEAIIKNDFAPRGIHFSPSEIFVNDGAKSDTGNIGDILRHDNSVGVTDPIYPVYIDSNVMCGRAGVLEEGTGKWSNVTYMPCTSENDFIPEIPDKRIDIVYLCYPNNPTGTTLTKPELKKWVDYALANDTLILFDAAYEAYIQDADVPHSIYEIKGAKKCAIEFRSFSKTAGFTGVRCGYTVVPKELTAATLEGDRIPLNKLWNRRQCTKFNGTSYITQRAAEAVYSTEGKAQIKETINYYMSNAKIMKEGLEATGLKVYGGVNAPYLWVKTPNGLSSWRFFEQMLYEANVVGTPGVGFGPSGEGYIRLTAFGDHNDCMEAMRRIKNWL", "soluble on expression in E. coli": "not soluble"}, {"sequence": "MGSDKIHHHHHHMLEFPALRPFLWSGRYNRPLMPLTYLTRIAQTPAPTFQEEARAELIARLWSDLGYVTERDEVGNVLTRITPPGTEGRPALLLAAHLDTVFGGQTDVTVHDEGQRLRGPGVGDNSASLAVVTAMLRDFRTAPPLLRRPLWVAANVGEEGLGDLRGAKHLLAAHRPQLGAFVAVDGYLGVAVTQAVGVRRYRAQFVGPGGHSWGDQAPSALHALGLAISGLYALHLPAQPRTTLNVGTAAGGNSVNSIAGQAELLLDLRSLGADELAALDSRAQDVLHRAARDAGVSLRLERVGDRPGGDLHTGALLGMAHAAAREVRVDLRLAASSTDANAAAPHVLPALAFGVYRGGNAHREDEWVEKRSLAPGLTALKRLVALYQAAPLA", "soluble on expression in E. coli": "not soluble"}, {"sequence": "MGSDKIHHHHHHVAKAAQRKLLLSELQLGMRVKLPLSWTNHPFLFNRVDINSLAQIEMIRGLGVPYVFLLSEVNTKSEQPSTDNKIIEVQEQPKTERDIKSATRKAMRLSQKRFLEGVNQCRNMFGKIVSDPEGAYRQSATLVEEMLSHLQEVEQPFLTLVGMDENEVSVTQHGVSVAVIAMMIGHALDLTPRELRDIALGSLLHDIGKLKVPENIRRKLSALTTNEANYLQMHPNFGYDMLNRSGLFPKEVLNIVLHHHEFIDGSGFPDGLTGNKIPIVTQIVALANDFDQHLSGQQASSPQVALGYLFKNRAAKHAESLISVLVKILGIYPPGTIVKLSDDSVAKVIMTTKEVAQPQVWACKPDGSEASLRFLSEEGVTVQKALKAEELTEGAIRTLQVDKGVSFYFSALQA", "soluble on expression in E. coli": "not soluble"}, {"sequence": "SLNSSIDVDSLMRSVSRVFKFIDMPTEGKPTKSTKPYKNGQLSKVMIIENSHVKKDDIWPSGGQMTVKDLTAKYTEGGNAILENISFSISPGQRVGLLGRTGSGKSTLLSAFLRLLNTEGEIQIDGVSWDSITLQQWRKAFGVIPQKVFIFSGTFRKNLDPYEQWSDQEIWKVADEVGLRSVIEQFPGKLDFVLVDGGCVLSHGHKQLMCLARSVLSKAKILLLDEPSAHLDPVTYQIIRRTLKQAFADCTVILCEHRIEAMLECQQFLVIEENKVRQYDSIQKLLNERSLFRQAISPSDRVKLFPHRNSSKCKSKPQIAALKEETEEEVQDTRL", "soluble on expression in E. coli": "soluble"}, {"sequence": "NRYQDLEKQVITTGNSIIEPLAIASESHLLAESREAVRRLISYAHRKNSKLVRSIAVFDEHHELFVTSNFHPNFEALMFPKDKPIPKLGNSEIYENSLILRVPILSEGHYLSELSNENQGTKAIGYIAVEMDLSSLRLQQYQE", "soluble on expression in E. coli": "not soluble"}, {"sequence": "MKVFIIGAAGGIGNRLSSLLHARGDAVSGMHRNLEQASKITDTGATAVLGDLIHNSTEELAELFRGHDAIVFSAGAHGTGQENTTLIDGAGLRKAADAASAANVSRFILVSAFPESSRGENTTENFEHYMKVKKSADVYLSHTDLDWVIVRPGVLQDEAGDGLVTAGLAINYGNVARDNVAAFIDEALHQPQLSKIIVELTDGSTPVAEAVERLIKLEHHHHHH", "soluble on expression in E. coli": "soluble"}, {"sequence": "MAHHHHHHMKDYNVTMEVFVQEPDDYVQDQRLLEEILNLTAHQALEAINKPLHEGVLSLSGNVGTMKEKDTITPLARGKPNGVLTQVPTEARREAEERLRREEEERLGGTQEMKFTFSGTIEDVLFRGEFRYKEMKLNDFLLLRFGGRGVVATNRSVLLEEFFKEPARYVPGARVLNEIKITVRYLRIEGTVREEMDLEEVVRMLHHESVFPLSNGRNMKEMTQPLPLQGEN", "soluble on expression in E. coli": "not soluble"}, {"sequence": "MGSDKIHHHHHHMSLASFNPRVARLATPPIPSVFGWGRAYDAAAGPLIDLSQAAPGHPPHADLLAWLAQAAGSAEACGYGAIEGELVLRRAYCTHLSELYGAAFTPEQIHITAGANQAFICAAMALAGAGERIALTDPFYFNHDTTLAMLGIETVALPCDSDNGFLPDLDRAEQVVKSGIKALALVTPNNPTGAVYPKELLADLYRLCRAHGVWLIVDETYRDFLNPEFGRPHELFSQPDWPEGLIQIYSFSKSFAIPGHRLAAICAGGPVVEQIAKIMDNLQICAPRAAQIALAKALPVLDGWRAENAAEIARRTVALRRAFDLVPQWHLASIGAYFAFARHPFGQAASIDVAEQLARRAGILAVPGGFFGSRQEGYLRLAFANVDCPTIETLPDRLRTFTLAG", "soluble on expression in E. coli": "not soluble"}, {"sequence": "NLREDGEKAAREVKLLLLGAGESGKSTFLKQMRIIHGQDFDQRAREEFRPTIYSNVIKGMRVLVDAREKLHIPWGDNKNQLHGDKLMAFDTRAPMAAQGMVETRVFLQYLPAIRALWEDSGIQNAYDRRREFQLGESVKYFLDNLDKLGVPDYIPSQQDILLARRPTKGIHETHFTFKDLHFKMFDVGGQRSERKKWFECFEGVTAIIFCVALSDYDQVLMEDRQTNRMHESMKLFDSICNNKWFTDTSIILFLNKKDLFEEKIKKSPLTICYPEYAGSNTYEEAAAYIQCQFEDLNKRKDTKEIYTHFTCATDTKNVQFVFDAVTDVIIKNNLKDCGLF", "soluble on expression in E. coli": "soluble"}, {"sequence": "MSLKMTNNTVLITGGSAGIGLELAKRLLELGNEVIICGRSEARLAEAKQQLPNIHTKQCDVADRSQREALYEWALKEYPNLNVLVNNAGIQKEIDFKKGTEELFVDGDEIELNFQAPVHLSALFTPHLMKQPEAAIVQVTSGLAFNPLAVYPVYCATKAALHSFSLTLRHHVRDTSVEVIEMAPPMVDTGLNQKSRDKQGLTYRGISSEEYVQYFLDGLKEGKQEITNERVEGLRDATRADYDRLFEQMNTQEGHHHHHH", "soluble on expression in E. coli": "soluble"}]}]}
